From patent publication CN116284426A (SUNSHINE GUOJIAN PHARMACEUTICAL SHANGHAI CO LTD, dated 2023)

B1: SP4VHL-32H2 (bispecific antibody, human IgG1, kappa)
heavy: not shown
light: DVVMTQSPLSLPVTLGQPASISCRSSQSLVYNNGNTYLHWYQQRPGQSPRLLIYKVSNRFSGVPDRFSGSGSGTDFTLKISRVEAEDVGVYFCSQSTHVPLTFGQGTKVEIKRTVAAPSVFIFPPSDEQLKSGTASVVCLLNNFYPREAKVQWKVDNALQSGNSQESVTEQDSKDSTYSLSSTLTLSKADYEKHKVYACEVTHQGLSSPVTKSFNRGEC
notes: The anti-CD3 scFv (VH-L-VL of humanized SP34) sits at the N-terminus of the heavy chain; also called 结构2
B2: 32H2Fab-SP4VHL (bispecific antibody)
heavy: EVQLVESGGGLVKPGGSLRLSCAASGFSFRTYAMSWVRQAPGKSLEWVATISSGSSYIYYPDSVKGRFTVSRDNAKNSLYLQMNSLRAEDTAVYYCTCYRMETFEYWGQGTLVTVSSASTKGPSVFPLAPSSKSTSGGTAALGCLVKDYFPEPVTVSWNSGALTSGVHTFPAVLQSSGLYSLSSVVTVPSSSLGTQTYICNVNHKPSNTKVDKKVEPKSCGGGGSGGGGSGGGGSEVQLVESGGGLVQPGGSLRLSCAASGFTFNTYAMNWVRQAPGKGLEWVARIRSKYNNYATYYADSVKDRFTISRDDSKNTLYLQMNSLRAEDTAVYYCVRHGNFGNSYVSWFAYWGQGTLVTVSSGGGGSGGGGSGGGGSGGGGSQAVVTQEPSLTVSPGGTVTLTCRSSTGAVTTSNYANWVQQKPGQAPRGLIGGTNKRAPGVPARFSGSLLGGKAALTLSGAQPEDEAEYYCALWYSNLWVFGQGTKVEIK
light: B1 light
notes: also called 32H2Fab-SPVHL; 结构10
B3: 32H2CH1-SP4VHL (bispecific antibody)
heavy: not shown
light: B1 light
notes: also called 结构7
B4: 32H2-SP4VHL-L (bispecific antibody, human IgG1, kappa)
heavy: not shown
light: DVVMTQSPLSLPVTLGQPASISCRSSQSLVYNNGNTYLHWYQQRPGQSPRLLIYKVSNRFSGVPDRFSGSGSGTDFTLKISRVEAEDVGVYFCSQSTHVPLTFGQGTKVEIKRTVAAPSVFIFPPSDEQLKSGTASVVCLLNNFYPREAKVQWKVDNALQSGNSQESVTEQDSKDSTYSLSSTLTLSKADYEKHKVYACEVTHQGLSSPVTKSFNRGECGGGGSGGGGSGGGGSEVQLVESGGGLVQPGGSLRLSCAASGFTFNTYAMNWVRQAPGKGLEWVARIRSKYNNYATYYADSVKDRFTISRDDSKNTLYLQMNSLRAEDTAVYYCVRHGNFGNSYVSWFAYWGQGTLVTVSSGGGGSGGGGSGGGGSGGGGSQAVVTQEPSLTVSPGGTVTLTCRSSTGAVTTSNYANWVQQKPGQAPRGLIGGTNKRAPGVPARFSGSLLGGKAALTLSGAQPEDEAEYYCALWYSNLWVFGQGTKVEIK
notes: also called 结构19
B5: 32H2CH1-SP4VHL-KIH (bispecific antibody, human IgG1, kappa)
heavy 1: not shown
heavy 2: EVQLVESGGGLVKPGGSLRLSCAASGFSFRTYAMSWVRQAPGKSLEWVATISSGSSYIYYPDSVKGRFTVSRDNAKNSLYLQMNSLRAEDTAVYYCTCYRMETFEYWGQGTLVTVSSASTKGPSVFPLAPSSKSTSGGTAALGCLVKDYFPEPVTVSWNSGALTSGVHTFPAVLQSSGLYSLSSVVTVPSSSLGTQTYICNVNHKPSNTKVDKKVEPKSCDKTHTCPPCPAPELLGGPSVFLFPPKPKDTLMISRTPEVTCVVVDVSHEDPEVKFNWYVDGVEVHNAKTKPREEQYNSTYRVVSVLTVLHQDWLNGKEYKCKVSNKALPAPIEKTISKAKGQPREPQVYTLPPCREEMTKNQVSLSCAVKGFYPSDIAVEWESNGQPENNYKTTPPVLDSDGSFFLVSKLTVDKSRWQQGNVFSCSVMHEALHNHYTQKSLSLSPGK
light: B1 light
notes: also called 结构9
B6: 32H2-ch (antibody, V domains shown)
VH: EVMLVESGGDLVKPGGSLKLSCAASGFSFRTYAMSWVRQSPEKSLEWVATISSGSSYIYYPDSVKGRFTVFRDNAKNTLYLQMSSLRSEDSAIYYCTCYRMETFEYWGQGTTLTVSS
VL: DVVMTQTPLSLPVSLGDEASISCRSSQSLVYNNGNTYLHWYLQKPGQSPKLLIYKVSNRFSGVPDRFSGSGSGTDFTLKISRVEAEDLGVYFCSQSTHVPLTFGAGTKLELKR
B7: 10D7-ch (antibody, V domains shown)
VH: QVQLKQSGPGLVQPSQSLSITCTVSGFSLTNYGVHWVRQSPGKGLEWLGVIWSGGRKDYNAAFISRLNITKDNSKSQVFFTMNSLHSDDTAIYYCARHGTYPYWYFALWGAGTSVTISS
VL: DIQMTQTTSSLSASLGDRVTISCRASQDISNYLNWYQQKPDGTFKLLVYYTSRLQSGVPSRFSGSGSGTLYSLTISTLEQEDVATYFCQQGKTLPFSFGGGTRLEIKR
B8: 43D11-ch (antibody, V domains shown)
VH: DVKLVESGGVLVKLGGSLKLSCAASGFTFSGYFMSWVRQTPEKRLELVAAINSDGGSTYYPDTVKGRFTISRDNAKNTLYLQMSSLKSEDTALYYCARLARYLYAMDYWGQGTSVTVSS
VL: QIVLTQSPAIMSASPGEKVTMTCSASSSVSYMYWYQQKPGSSPRLLIYDTSNLASGVPVRFSGSGSGTSYSLTISRMEAEDAATYYCQQWTSSSWTFGGGTKLEIKR
B9: 32H2G1A1 (antibody, V domains shown)
VH: B6 VH
VL: DVVMTQTPLSLPVSLGDEASISCRSSQSLVYNNGNTYLHWYLQKPGQSPKLLIYKVSNRFSGVPDRFSGSGSGTDFTLKISRVEAEDLGVYFCSQSTHVPLTFGAGTKLELK
B10: 10D7A7 (antibody, V domains shown)
VH: B7 VH
VL: DIQMTQTTSSLSASLGDRVTISCRASQDISNYLNWYQQKPDGTFKLLVYYTSRLQSGVPSRFSGSGSGTLYSLTISTLEQEDVATYFCQQGKTLPFSFGGGTRLEIK

The binders below were run against T1, GUCY2C on tumour cells (CW2, CW2-GCC#1, T84) (human, UniProt P25092 24-1073) (assay: cell-based or functional assay).
T1 sequence (P25092 24-1073): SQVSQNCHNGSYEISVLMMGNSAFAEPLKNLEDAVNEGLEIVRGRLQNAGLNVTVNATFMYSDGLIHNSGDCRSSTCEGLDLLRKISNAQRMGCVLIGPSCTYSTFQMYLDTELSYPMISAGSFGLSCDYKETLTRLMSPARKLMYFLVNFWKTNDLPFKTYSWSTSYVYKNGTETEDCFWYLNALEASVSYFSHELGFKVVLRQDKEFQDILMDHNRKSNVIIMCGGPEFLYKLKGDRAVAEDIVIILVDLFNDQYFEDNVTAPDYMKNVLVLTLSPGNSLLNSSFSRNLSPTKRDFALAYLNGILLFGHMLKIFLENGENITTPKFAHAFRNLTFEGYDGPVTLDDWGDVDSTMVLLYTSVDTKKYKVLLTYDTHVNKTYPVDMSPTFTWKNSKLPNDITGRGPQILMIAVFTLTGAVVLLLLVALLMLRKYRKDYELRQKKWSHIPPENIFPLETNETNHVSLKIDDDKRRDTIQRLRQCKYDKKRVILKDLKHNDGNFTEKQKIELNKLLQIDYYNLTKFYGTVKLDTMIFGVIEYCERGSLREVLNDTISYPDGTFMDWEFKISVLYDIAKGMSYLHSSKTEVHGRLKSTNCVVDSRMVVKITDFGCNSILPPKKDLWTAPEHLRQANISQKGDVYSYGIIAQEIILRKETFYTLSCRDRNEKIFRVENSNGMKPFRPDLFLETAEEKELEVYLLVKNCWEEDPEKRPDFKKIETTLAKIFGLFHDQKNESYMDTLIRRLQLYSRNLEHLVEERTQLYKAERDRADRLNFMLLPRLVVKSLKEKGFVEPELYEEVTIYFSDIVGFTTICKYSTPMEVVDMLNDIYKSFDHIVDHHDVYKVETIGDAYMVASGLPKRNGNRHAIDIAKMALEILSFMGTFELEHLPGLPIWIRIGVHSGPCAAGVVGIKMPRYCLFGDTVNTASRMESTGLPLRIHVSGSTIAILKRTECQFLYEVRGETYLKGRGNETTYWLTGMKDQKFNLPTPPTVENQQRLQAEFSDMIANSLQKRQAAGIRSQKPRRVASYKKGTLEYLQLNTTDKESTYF

Compared with B1, B2 is 110-fold higher in “IC50 of T-cell-mediated killing of CW2 cells (CTG, E:T 5:1, 96 h)” value: 460 pM for the first, 51000 pM for the second.

Compared with B3, B4 is 1.6-fold higher in “IC50 of T-cell-mediated killing of CW2 cells (CTG, E:T 5:1, 96 h)” value: 50 pM for the first, 80 pM for the second.

Molecular target: T1, GUCY2C on tumour cells (CW2, CW2-GCC#1, …)
Assay: cell-based or functional assay
Remark: another data set of the same source

Going from B1 to B2, the “IC50 of T-cell-mediated killing of T84 cells” value rises from 4 pM to 1250 pM (310-fold).

In the case of B5, the “IC50 of T-cell-mediated killing of T84 cells” value is reported as 366 pM.

These binders were tested against T2, CD3ε-ECD-his (UniProt P07766 23-126) (assay: ELISA, CD3ε-ECD-his coated; reference SP34).
T2 construct: extracellular domain; also called CD3ε蛋白
T2 sequence (P07766 other isoform, or with tags, fused parts or gaps): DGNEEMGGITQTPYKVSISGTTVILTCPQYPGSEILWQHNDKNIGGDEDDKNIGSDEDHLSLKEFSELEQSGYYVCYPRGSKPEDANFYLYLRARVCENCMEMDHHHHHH

Going from B1 to B3, the “fold weaker affinity than SP34” value falls from roughly 5 fold to roughly 2 fold.

With B5 the “fold weaker affinity than SP34” value was roughly 10 fold.

Each binder was assayed against T3, GUCY2C-His蛋白 (human GUCY2C extracellular region with C-terminal 6xHis) (human, UniProt P25092 24-430) (assay: ELISA, GUCY2C-His coated, anti-human IgG Fc HRP).
T3 construct: extracellular domain; Made in HEK-293F with an unspecified N-terminal signal peptide; also called 人GUCY2C-His蛋白
T3 sequence (P25092 other isoform, or with tags, fused parts or gaps): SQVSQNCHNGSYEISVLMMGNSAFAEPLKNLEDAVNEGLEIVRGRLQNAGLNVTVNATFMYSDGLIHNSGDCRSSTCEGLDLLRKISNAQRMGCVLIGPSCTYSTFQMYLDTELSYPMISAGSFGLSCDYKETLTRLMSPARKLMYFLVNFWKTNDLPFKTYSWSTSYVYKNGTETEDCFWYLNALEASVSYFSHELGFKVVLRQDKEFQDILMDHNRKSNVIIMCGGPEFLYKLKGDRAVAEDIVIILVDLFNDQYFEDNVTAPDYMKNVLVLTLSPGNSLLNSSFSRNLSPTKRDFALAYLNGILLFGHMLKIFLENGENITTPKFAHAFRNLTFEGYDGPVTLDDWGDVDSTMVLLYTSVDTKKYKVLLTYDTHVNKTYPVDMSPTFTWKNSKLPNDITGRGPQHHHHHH

B6 and B7 are within 1.5-fold of each other in EC50: 141 pM for the first, 113 pM for the second.

For B8, the EC50 was 5190 pM.

Each binder was assayed against T2, CD3ε-ECD-his (assay: ELISA, CD3ε-ECD-his coated at 1 ug/mL (Table 19)).

Compared with B1, B3 is 2.6-fold lower in EC50: 792 pM for the first, 309 pM for the second. The second is the more potent here.

Work on B5 yielded an EC50 of 1310 pM.

These binders were tested against T3, GUCY2C-His蛋白 (human GUCY2C …) (assay: ELISA, GUCY2C-His coated, anti-human IgG Fab HRP (Table 9)).

First: B1
Second: B2
The EC50 of the first is 19-fold lower: 1860 pM for the first, 35500 pM for the second. The first is the more potent here.

Going from B3 to B4, the EC50 rises from 290 pM to 490 pM (1.7-fold). The first is the more potent here.

What follows are binders tested against T4, GUCY2C-Fc蛋白 (human GUCY2C extracellular region fused to human IgG1 Fc) (human, UniProt P25092 24-430) (assay: ELISA, GUCY2C-Fc coated, anti-human IgG Fab HRP (Table 11)).
T4 construct: extracellular domain; Made in HEK-293F with an unspecified N-terminal signal peptide; also called 人GUCY2C-Fc蛋白; not shown: human IgG1 Fc at the C-terminus in place of the 6xHis tag
T4 sequence (P25092 24-430 limits assumed): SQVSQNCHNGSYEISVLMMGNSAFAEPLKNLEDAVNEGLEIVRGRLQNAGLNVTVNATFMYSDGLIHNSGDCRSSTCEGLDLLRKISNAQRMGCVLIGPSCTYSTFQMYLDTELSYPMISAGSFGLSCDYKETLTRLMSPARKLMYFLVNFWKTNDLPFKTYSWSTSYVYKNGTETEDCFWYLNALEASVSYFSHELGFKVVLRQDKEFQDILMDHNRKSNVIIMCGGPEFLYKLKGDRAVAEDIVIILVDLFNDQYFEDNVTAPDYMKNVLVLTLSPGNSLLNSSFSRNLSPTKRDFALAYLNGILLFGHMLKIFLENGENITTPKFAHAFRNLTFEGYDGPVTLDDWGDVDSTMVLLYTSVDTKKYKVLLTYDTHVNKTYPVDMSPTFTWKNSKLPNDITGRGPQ

Compared with B1, B2 is 5.1-fold higher in EC50: 1000 pM for the first, 5080 pM for the second.

First: B3
Second: B4
The EC50 of the first is 1.6-fold lower: 240 pM for the first, 380 pM for the second. The first is the more potent here.

Each binder was assayed against T4, GUCY2C-Fc蛋白 (human GUCY2C extracellular …) (assay: ELISA, GUCY2C-Fc coated, anti-human IgG Fab HRP (Table 12)).

B1 and B2 are within 1.5-fold of each other in EC50: 1190 pM for the first, 1040 pM for the second.

B3 and B4 are within 1.5-fold of each other in EC50: 330 pM for the first, 430 pM for the second.

Each binder was assayed against T4, GUCY2C-Fc蛋白 (human GUCY2C extracellular …) (assay: ELISA, GUCY2C-Fc coated, anti-human IgG Fab HRP (Table 18)).

Going from B1 to B3, the EC50 falls from 2830 pM to 521 pM (5.4-fold). The second is the more potent here.

B5 showed an EC50 of 681 pM.

What follows are binders tested against T4, GUCY2C-Fc蛋白 (human GUCY2C extracellular …) (assay: indirect ELISA, GUCY2C-Fc coated at 1 ug/mL, anti-mouse HRP).

Compared with B9, B10 is 4.3-fold higher in EC50: 0.00709 µg/mL for the first, 0.0307 µg/mL for the second.

What follows are binders tested against T3, GUCY2C-His蛋白 (human GUCY2C …) (assay: ELISA, GUCY2C-His coated, anti-human IgG Fab HRP (Table 10)).

Going from B1 to B2, the EC50 rises from 2090 pM to 30100 pM (14-fold).

First: B3
Second: B4
The EC50 of the first is 2.1-fold lower: 230 pM for the first, 490 pM for the second. The first is the more potent here.

These binders were tested against T3, GUCY2C-His蛋白 (human GUCY2C …) (assay: ELISA, GUCY2C-His coated, anti-human IgG Fab HRP (Table 17)).

Compared with B1, B3 is 9.8-fold lower in EC50: 1840 pM for the first, 188 pM for the second. The second is the more potent here.

With B5 the EC50 was 264 pM.

Each binder was assayed against T1, GUCY2C on tumour cells (CW2, CW2-GCC#1, …) (assay: flow cytometry on CW2 human colon cancer cells, anti-mouse PE).

Compared with B9, B10 is 70-fold lower in EC50: 9.6 µg/mL for the first, 0.137 µg/mL for the second.

Each binder was assayed against T3, GUCY2C-His蛋白 (human GUCY2C …) (assay: ELISA, GUCY2C-His coated at 0.1 ug/mL, anti-mouse HRP (Table 4)).

First: B9
Second: B10
The EC50 of the first is 3.1-fold lower: 260 pM for the first, 800 pM for the second. The first is the more potent here.

What follows are binders tested against T2, CD3ε-ECD-his (assay: ELISA, CD3ε-ECD-his coated at 1 ug/mL, anti-human IgG Fab HRP (Table 14)).

Compared with B1, B2 is 10-fold higher in EC50: 590 pM for the first, 6120 pM for the second.

Compared with B3, B4 is 2.9-fold higher in EC50: 370 pM for the first, 1090 pM for the second. The first is the more potent here.
